Laboratory results from paper PMC2880918.

Columns and labels:
[1] = biological target: Nucleosome Assembly Protein 1 (Nap1) (UniProt P25293); experiment: FRET or BRET
[2] = biological target: H2A–H2B dimer (Xenopus laevis) (UniProt P06897); experiment: FRET or BRET

Kd [1] | Kd [2] | Substance
11 nM |  | (H3K56ac-H4)2 tetramer (from UniProt P62799 1-103) (complex)
 | 35 nM | tetrasome with the fluorescent label on H4 (from UniProt P62799 1-103) (complex)
